For one assay, the target named is T1, c-Fos (UniProt P01100 1-380, limits assumed).
T1 construct: Tested in 'similar assays'; The construct is not described
Description: similar assays (two-hybrid / co-immunoprecipitation; not specified).

Another assay concerns the target T2, ATF-2 (UniProt P15336 1-505, limits assumed).
T2 construct: Tested in 'similar assays'; The construct is not described
T2 sequence (looked up): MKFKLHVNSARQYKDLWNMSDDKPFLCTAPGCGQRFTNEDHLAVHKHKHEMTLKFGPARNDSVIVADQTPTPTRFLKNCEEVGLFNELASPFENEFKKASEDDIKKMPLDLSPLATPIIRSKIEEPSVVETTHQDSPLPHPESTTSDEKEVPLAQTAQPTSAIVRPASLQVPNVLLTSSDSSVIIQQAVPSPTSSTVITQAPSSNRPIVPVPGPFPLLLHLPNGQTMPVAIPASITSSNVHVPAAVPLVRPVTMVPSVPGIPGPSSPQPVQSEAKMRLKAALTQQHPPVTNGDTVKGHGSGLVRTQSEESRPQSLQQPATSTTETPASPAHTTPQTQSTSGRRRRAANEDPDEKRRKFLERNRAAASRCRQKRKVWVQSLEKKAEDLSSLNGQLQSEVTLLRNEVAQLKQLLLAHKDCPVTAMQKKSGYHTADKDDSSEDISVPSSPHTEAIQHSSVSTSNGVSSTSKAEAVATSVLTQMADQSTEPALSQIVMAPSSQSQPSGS
Described as above.

T1 sequence (P01100 whole entry): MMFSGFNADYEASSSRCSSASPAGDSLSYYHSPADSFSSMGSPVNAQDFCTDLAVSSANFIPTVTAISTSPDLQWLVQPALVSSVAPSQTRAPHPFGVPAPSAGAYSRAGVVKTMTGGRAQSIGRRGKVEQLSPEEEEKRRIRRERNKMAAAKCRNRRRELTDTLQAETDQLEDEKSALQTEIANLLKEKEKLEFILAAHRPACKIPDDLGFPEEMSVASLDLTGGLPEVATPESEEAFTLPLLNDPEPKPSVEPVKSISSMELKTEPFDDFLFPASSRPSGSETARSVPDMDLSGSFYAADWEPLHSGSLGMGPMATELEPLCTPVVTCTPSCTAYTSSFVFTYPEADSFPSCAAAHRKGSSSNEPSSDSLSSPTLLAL

B1: HA-tagged SARI (Suppressor of AP-1, Regulated by IFN), expressed in HeLa cells from Ad.SARI (other)
chain: MHLCGGNGLLTQTDPKEQQRQLKKQKNRAAAQRSRQKHTDKADALHQQHESLEKDNLALRKEIQSLQAELAWWSRTLHVHERLCPMDCASCSAPGLLGCWDQAEGLLGPGPQGQHGCREQLELFQTPGSCYPAQPLSPGPQPHDSPSLLQCPLPSLSLGPAVVAEPPVQLSPSPLLFASHTGSSLQGSSSKLSALQPSLTAQTAPPQPLELEHPTRGKLGSSPDNPSSALGLARLQSREHKPALSAATWQGLVVDPSPHPLLAFPLLSSAQVHF
notes: also called SARI protein; WT SARI; not shown: HA tag
For the molecule B1, the binding result with c-Fos and with ATF-2 was “no binding” throughout.

Source of the values: patent publication US20110313028A1 (VIRGINIA COMMONWEALTH UNIVERSITY, published 2011).
